Data from article PMC2720833 (Journal of molecular biology, 2009).

How the values were obtained:
Test in all cases: ITC
[1] = target: SOCS3 box/elonginBC ternary complex (murine | human | mouse, UniProt Q15370 1-118; P83940 17-112)
[2] = target: SOCS5 box/elonginBC ternary complex (murine | human | mouse, UniProt Q15370 1-118; P83940 17-112)
[3] = target: CIS box/elonginBC ternary complex (murine | human | mouse, UniProt Q15370 1-118; P83940 17-112)
[4] = target: SOCS1 box/elonginBC ternary complex (murine | human | mouse, UniProt Q15370 1-118; P83940 17-112)
[5] = target: SOCS2 box/elonginBC ternary complex (murine | human | mouse, UniProt Q15370 1-118; P83940 17-112)
[6] = target: SOCS4 box/elonginBC ternary complex (murine | human | mouse, UniProt Q15370 1-118; P83940 17-112)
[7] = target: SOCS6 box/elonginBC ternary complex (murine | human | mouse, UniProt Q15370 1-118; P83940 17-112)
[8] = target: SOCS7 box/elonginBC ternary complex (murine | human | mouse, UniProt Q15370 1-118; P83940 17-112)

stoichiometry N [1]: ~1 | Kd [2]: ~10 nM | stoichiometry N [2]: ~1 | Kd [3]: ~10 nM | stoichiometry N [3]: ~1 | Kd [4]: 1000 nM | stoichiometry N [4]: ~1 | Kd [5]: ~10 nM | stoichiometry N [5]: ~1 | Kd [6]: ~10 nM | stoichiometry N [6]: ~1 | Kd [7]: ~10 nM | stoichiometry N [7]: ~1 | Kd [8]: ~10 nM | stoichiometry N [8]: ~1
B1: GST-Cullin5 (NTD), N-terminal domain of murine cullin5 (Met1-Leu385) with V341R and L345D (domain or fragment)
chain: MATSNLLKNKGSLQFEDKWDFMHPIVLKLLRQESVTKQQWFDLFSDVHAVCLWDDKGSSKIHQALKEDILEFIKQAQARVLSHQDDTALLKAYIVEWRKFFTQCDILPKPFCQLEVTLLGKQSSNKKSNMEDSIVRKLMLDTWNESIFSNIKNRLQDSAMKLVHAERLGEAFDSQLVIGVRESYVNLCSNPEDKLQIYRDNFEKAYLDSTERFYRTQAPSYLQQNGVQNYMKYADAKLKEEEKRALRYLETRRECNSVEALMECCVNALVTSFKETILAECQGMIKRNETEKLHLMFSLMDKVPNGIEPMLKDLEEHIISAGLADMVAAAETITTDSEKYREQLDTLFNRFSKLVKEAFQDDPRFLTARDKAYKAVVNDATIFKL
